What was measured:
[1] = test system: oligomeric versus monomeric Aβ1-42 (Aβ1-42-biotin bait); assay: Affinity capture interactome Experiment III (oAβ1-42-biotin vs mAβ1-42-biotin); details: oligomeric versus monomeric bait; human frontal lobe digitonin extract; TMT; pH 8.0, 4°C overnight
[2] = test system: oligomeric Aβ1-42 (oAβ1-42-biotin bait); assay: Affinity capture interactome Experiment II (C-terminally tethered oAβ1-42-biotin vs biotin); details: enrichment relative to biotin-only negative control; human frontal lobe digitonin extract; TMT; pH 8.0, 4°C overnight

B1: Phosphoglycerate kinase 1: human brain protein (protein, UniProt P00558 2-417, looked up)
Phosphoglycerate kinase 1: SLSNKLTLDKLDVKGKRVVMRVDFNVPMKNNQITNNQRIKAAVPSIKFCLDNGAKSVVLMSHLGRPDGVPMPDKYSLEPVAVELKSLLGKDVLFLKDCVGPEVEKACANPAAGSVILLENLRFHVEEEGKGKDASGNKVKAEPAKIEAFRASLSKLGDVYVNDAFGTAHRAHSSMVGVNLPQKAGGFLMKKELNYFAKALESPERPFLAILGGAKVADKIQLINNMLDKVNEMIIGGGMAFTFLKVLNNMEIGTSLFDEEGAKIVKDLMSKAEKNGVKITLPVDFVTADKFDENAKTGQATVASGIPAGWMGLDCGPESSKKYAEAVTRAKQIVWNGPVGVFEWEAFARGTKALMDEVVKATSRGCITIIGGGDTATCCAKWNTEDKVSHVSTGGGASLELLEGKVLPGVDALSNI
Experiment III oAβ1-42-B/mAβ1-42-B Ratio [1]: 1.73
Experiment II oAβ1-42-B/B Ratio [2]: 1.38

B2: NAD-dependent deacetylase sirtuin-2: human brain protein (protein, UniProt Q8IXJ6 2-389, looked up)
NAD-dependent protein …: AEPDPSHPLETQAGKVQEAQDSDSDSEGGAAGGEADMDFLRNLFSQTLSLGSQKERLLDELTLEGVARYMQSERCRRVICLVGAGISTSAGIPDFRSPSTGLYDNLEKYHLPYPEAIFEISYFKKHPEPFFALAKELYPGQFKPTICHYFMRLLKDKGLLLRCYTQNIDTLERIAGLEQEDLVEAHGTFYTSHCVSASCRHEYPLSWMKEKIFSEVTPKCEDCQSLVKPDIVFFGESLPARFFSCMQSDFLKVDLLLVMGTSLQVQPFASLISKAPLSTPRLLINKEKAGQSDPFLGMIMGLGGGMDFDSKKAYRDVAWLGECDQGCLALAELLGWKKELEDLVRREHASIDAQSGAGVPNPSTSASPKKSPPPAKDEARTTEREKPQ
Experiment III oAβ1-42-B/mAβ1-42-B Ratio [1]: 2.58

B3: Peroxiredoxin-6: human brain protein (protein, UniProt P30041 2-224, looked up)
Peroxiredoxin-6: PGGLLLGDVAPNFEANTTVGRIRFHDFLGDSWGILFSHPRDFTPVCTTELGRAAKLAPEFAKRNVKLIALSIDSVEDHLAWSKDINAYNCEEPTEKLPFPIIDDRNRELAILLGMLDPAEKDEKGMPVTARVVFVFGPDKKLKLSILYPATTGRNFDEILRVVISLQLTAEKRVATPVDWKDGDSVMVLPTIPEEEAKKLFPKGVFTKELPSGKKYLRYTPQP
Experiment III oAβ1-42-B/mAβ1-42-B Ratio [1]: 1.54
Experiment II oAβ1-42-B/B Ratio [2]: 1.42

B4: Ubiquitin carboxyl-terminal hydrolase L1: human brain protein (protein, UniProt P09936 1-220, looked up)
Ubiquitin carboxyl-terminal …: MQLKPMEINPEMLNKVLSRLGVAGQWRFVDVLGLEEESLGSVPAPACALLLLFPLTAQHENFRKKQIEELKGQEVSPKVYFMKQTIGNSCGTIGLIHAVANNQDKLGFEDGSVLKQFLSETEKMSPEDRAKCFEKNEAIQAAHDAVAQEGQCRVDDKVNFHFILFNNVDGHLYELDGRMPFPVNHGASSEDTLLKDAAKVCREFTEREQGEVRFSAVALC
Experiment III oAβ1-42-B/mAβ1-42-B Ratio [1]: 1.39
Experiment II oAβ1-42-B/B Ratio [2]: 1.87

B5: ATP synthase subunit gamma, mitochondrial: human brain protein (protein, UniProt P36542 26-298, looked up)
ATP synthase F(1) complex …: ATLKDITRRLKSIKNIQKITKSMKMVAAAKYARAERELKPARIYGLGSLALYEKADIKGPEDKKKHLLIGVSSDRGLCGAIHSSIAKQMKSEVATLTAAGKEVMLVGIGDKIRGILYRTHSDQFLVAFKEVGRKPPTFGDASVIALELLNSGYEFDEGSIIFNKFRSVISYKTEEKPIFSLNTVASADSMSIYDDIDADVLQNYQEYNLANIIYYSLKESTTSEQSARMTAMDNASKNASEMIDKLTLTFNRTRQAVITKELIEIISGAAALD
Experiment III oAβ1-42-B/mAβ1-42-B Ratio [1]: 3.29

B6: Tryptophanyl-tRNA synthetase, cytoplasmic: human brain protein (protein, UniProt P23381 2-471, looked up)
Tryptophan--tRNA ligase, …: PNSEPASLLELFNSIATQGELVRSLKAGNASKDEIDSAVKMLVSLKMSYKAAAGEDYKADCPPGNPAPTSNHGPDATEAEEDFVDPWTVQTSSAKGIDYDKLIVRFGSSKIDKELINRIERATGQRPHHFLRRGIFFSHRDMNQVLDAYENKKPFYLYTGRGPSSEAMHVGHLIPFIFTKWLQDVFNVPLVIQMTDDEKYLWKDLTLDQAYSYAVENAKDIIACGFDINKTFIFSDLDYMGMSSGFYKNVVKIQKHVTFNQVKGIFGFTDSDCIGKISFPAIQAAPSFSNSFPQIFRDRTDIQCLIPCAIDQDPYFRMTRDVAPRIGYPKPALLHSTFFPALQGAQTKMSASDPNSSIFLTDTAKQIKTKVNKHAFSGGRDTIEEHRQFGGNCDVDVSFMYLTFFLEDDDKLEQIRKDYTSGAMLTGELKKALIEVLQPLIAEHQARRKEVTDEIVKEFMTPRKLSFDFQ
Experiment III oAβ1-42-B/mAβ1-42-B Ratio [1]: 3.97

B7: Dihydropyrimidinase-related protein 5: human brain protein (protein, UniProt Q9BPU6 1-564, looked up)
Dihydropyrimidinase-related …: MLANSASVRILIKGGKVVNDDCTHEADVYIENGIIQQVGRELMIPGGAKVIDATGKLVIPGGIDTSTHFHQTFMNATCVDDFYHGTKAALVGGTTMIIGHVLPDKETSLVDAYEKCRGLADPKVCCDYALHVGITWWAPKVKAEMETLVREKGVNSFQMFMTYKDLYMLRDSELYQVLHACKDIGAIARVHAENGELVAEGAKEALDLGITGPEGIEISRPEELEAEATHRVITIANRTHCPIYLVNVSSISAGDVIAAAKMQGKVVLAETTTAHATLTGLHYYHQDWSHAAAYVTVPPLRLDTNTSTYLMSLLANDTLNIVASDHRPFTTKQKAMGKEDFTKIPHGVSGVQDRMSVIWERGVVGGKMDENRFVAVTSSNAAKLLNLYPRKGRIIPGADADVVVWDPEATKTISASTQVQGGDFNLYENMRCHGVPLVTISRGRVVYENGVFMCAEGTGKFCPLRSFPDTVYKKLVQREKTLKVRGVDRTPYLGDVAVVVHPGKKEMGTPLADTPTRPVTRHGGMRDLHESSFSLSGSQIDDHVPKRASARILAPPGGRSSGIW
Experiment III oAβ1-42-B/mAβ1-42-B Ratio [1]: 3.79

B8: Peroxiredoxin-2: human brain protein (protein, UniProt P32119 2-198, looked up)
Peroxiredoxin-2: ASGNARIGKPAPDFKATAVVDGAFKEVKLSDYKGKYVVLFFYPLDFTFVCPTEIIAFSNRAEDFRKLGCEVLGVSVDSQFTHLAWINTPRKEGGLGPLNIPLLADVTRRLSEDYGVLKTDEGIAYRGLFIIDGKGVLRQITVNDLPVGRSVDEALRLVQAFQYTDEHGEVCPAGWKPGSDTIKPNVDDSKEYFSKHN
Experiment III oAβ1-42-B/mAβ1-42-B Ratio [1]: 2.40
Experiment II oAβ1-42-B/B Ratio [2]: 1.51

B9: Cytosolic acyl CoA thioester hydrolase: human brain protein (protein, UniProt O00154 1-380, looked up)
Cytosolic acyl coenzyme A …: MKLLARALRLCEFGRQASSRRLVAGQGCVGPRRGCCAPVQVVGPRADLPPCGACITGRIMRPDDANVAGNVHGGTILKMIEEAGAIISTRHCNSQNGERCVAALARVERTDFLSPMCIGEVAHVSAEITYTSKHSVEVQVNVMSENILTGAKKLTNKATLWYVPLSLKNVDKVLEVPPVVYSRQEQEEEGRKRYEAQKLERMETKWRNGDIVQPVLNPEPNTVSYSQSSLIHLVGPSDCTLHGFVHGGVTMKLMDEVAGIVAARHCKTNIVTASVDAINFHDKIRKGCVITISGRMTFTSNKSMEIEVLVDADPVVDSSQKRYRAASAFFTYVSLSQEGRSLPVPQLVPETEDEKKRFEEGKGRYLQMKAKRQGHAEPQP
Experiment III oAβ1-42-B/mAβ1-42-B Ratio [1]: 4.03

B10: Mu-crystallin homolog: human brain protein (protein, UniProt Q14894 1-314, looked up)
Ketimine reductase …: MSRVPAFLSAAEVEEHLRSSSLLIPPLETALANFSSGPEGGVMQPVRTVVPVTKHRGYLGVMPAYSAAEDALTTKLVTFYEDRGITSVVPSHQATVLLFEPSNGTLLAVMDGNVITAKRTAAVSAIATKFLKPPSSEVLCILGAGVQAYSHYEIFTEQFSFKEVRIWNRTKENAEKFADTVQGEVRVCSSVQEAVAGADVIITVTLATEPILFGEWVKPGAHINAVGASRPDWRELDDELMKEAVLYVDSQEAALKESGDVLLSGAEIFAELGEVIKGVKPAHCEKTTVFKSLGMAVEDTVAAKLIYDSWSSGK
Experiment III oAβ1-42-B/mAβ1-42-B Ratio [1]: 2.41

B11: Medium-chain specific acyl-CoA dehydrogenase: human brain protein (protein, UniProt P11310 26-421, looked up)
Medium-chain specific …: KANRQREPGLGFSFEFTEQQKEFQATARKFAREEIIPVAAEYDKTGEYPVPLIRRAWELGLMNTHIPENCGGLGLGTFDACLISEELAYGCTGVQTAIEGNSLGQMPIIIAGNDQQKKKYLGRMTEEPLMCAYCVTEPGAGSDVAGIKTKAEKKGDEYIINGQKMWITNGGKANWYFLLARSDPDPKAPANKAFTGFIVEADTPGIQIGRKELNMGQRCSDTRGIVFEDVKVPKENVLIGDGAGFKVAMGAFDKTRPVVAAGAVGLAQRALDEATKYALERKTFGKLLVEHQAISFMLAEMAMKVELARMSYQRAAWEVDSGRRNTYYASIAKAFAGDIANQLATDAVQILGGNGFNTEYPVEKLMRDAKIYQIYEGTSQIQRLIVAREHIDKYKN
Experiment III oAβ1-42-B/mAβ1-42-B Ratio [1]: 1.82

B12: Centractin, beta: human brain protein (protein, UniProt P42025 1-376, looked up)
Beta-centractin: MESYDIIANQPVVIDNGSGVIKAGFAGDQIPKYCFPNYVGRPKHMRVMAGALEGDLFIGPKAEEHRGLLTIRYPMEHGVVRDWNDMERIWQYVYSKDQLQTFSEEHPVLLTEAPLNPSKNREKAAEVFFETFNVPALFISMQAVLSLYATGRTTGVVLDSGDGVTHAVPIYEGFAMPHSIMRVDIAGRDVSRYLRLLLRKEGVDFHTSAEFEVVRTIKERACYLSINPQKDEALETEKVQYTLPDGSTLDVGPARFRAPELLFQPDLVGDESEGLHEVVAFAIHKSDMDLRRTLFANIVLSGGSTLFKGFGDRLLSEVKKLAPKDIKIKISAPQERLYSTWIGGSILASLDTFKKMWVSKKEYEEDGSRAIHRKTF
Experiment III oAβ1-42-B/mAβ1-42-B Ratio [1]: 3.25

— article PMC5505701, “Somatostatin binds to the human amyloid β peptide and favors the formation of distinct oligomers” (eLife, 2017)
